The record followed here is publication PMC3167946 (Vaccine, 2011).

The assay addresses Envelope glycoprotein gp120Bal (HIV-1 isolate BaL (subtype B), clone …, UniProt Q6TAP7, strain). Nature of the assay: ELISA. A general note: ELISA stands for enzyme-linked immunosorbent assay.

B1: human mature b12 scFv (scFv, V domains shown)
VH: QVQLVQSGAEVKKPGASVKVSCQASGYRFSNFVIHWVRQAPGQRFEWMGWINPYNGNKEFSAKFQDRVTFTADTSANTAYMELRSLRSADTAVYYCARVGPYSWDDSPQDNYYMDVWGKGTTVIVSS
VL: EIVLTQSPGTLSLSPGERATFSCRSSHSIRSRRVAWYQHKPGQAPRLVIHGVSNRASGISDRFSGSGSGTDFTLTITRVEPEDFALYYCQVYGASSYTFGQGTKLERK
For B1, a half-maximal effect (EC50) was put at 0.3 nM.

By EC50 is commonly meant the concentration that produces a half-maximal response. Low readings indicate a more potent agent, high ones a less potent agent.
